PMC5095173, “Disulfide-activated protein kinase G Iα regulates cardiac diastolic relaxation and fine-tunes the Frank–Starling response” (Nature Communications, 2016)

B1: Mitochondrial ribonuclease P protein 1: PKGIα substrate, phospho site T377 (protein, UniProt Q5U2R4 36-414, looked up)
tRNA methyltransferase 10 …: VSSKVPSLPCHNKDSTSPPEQLELDGWKTTMKSSIQENGVSVVSDKDEDSLAATRELIEMWRLLGKEVPEHITEEELKTLMECASKSAKKKYLRYLYGKEMMKKAKQMKKEMKAAAREEAKRARSLEPSTGEEQRDFMFLRLWDRQTNIALGWKGVQAMQFGQPLVFDMAYDNYMKPSELQNTVSQLLESEGWNRRNVDPFHIYFCNLEVDGAYHRELVKRYGEKWDKLLLTATEKSPVDLFPKDSIIYLTADSPNVMTTFKHDKIYIIGSFVDKNTQTGTSLAKAKRQNLATECLPLDKYLQWDVGNKNLTLDQMIRILLCLKNTGNWEEALKFVPRRKHTGYLEVPEHSQAAFRKLKKTKTLNSFRKGSLNVHMWKR
modifications: phosphorylated at T377
B2: Microtubule-associated protein 4: PKGIα substrate, phospho site T899 (protein, UniProt Q5M7W5 2-1057, looked up)
Microtubule-associated …: ADLSLVDALTEPPPEIEGEIKRDFMAALEAEPYDDIVGETVEKTEFIPLLDGDEKSGNSESKRKPCVDTSQVEDIPSSKPTLLANGDHGVEGNNTTGSPTDFLVENVDYEDYQNSQSWPEDASFCFQPQQVLDTNQADPFNVHHDDGLADLLFVSSGPTNASAFIEENNPLEDSYGVLPCDSFAPTAVVSQEWSVGAPDSPHSEPCVSPEVTIETAQPATELSKAVDLESVKEQLPAKALEMMAGQTTDAVPSKESEGSPDTDAAPGPDTDVTLTKDIEESSSPDVISANVTQPFTESDMFLTQEMELLIGTEAAQVKDTMSSVEPDISSAKNTAPPTEEETVPGKDMTFPKEAETALPIEMDLAPPEDVALPKETELELAPAAGTAPLSETEVALAKDEEPSTGIPAAQEMLLSSETEVVLPSDSIMTLTKEVTVPLEAAGPLVSDMTAILETEMTLGGGTATPTETKLGKVKDMAPLPESEVALGKDVVTLPETKVTEFNNVTPLSEEEVASIKDVSPSPETETAKNADLHSGTELTLDNSMTPPSDPALPLETKVATVQIKDKETVQTQEELSEDSQLESVQLEGQSAVPPCTISPEPVKAADQKSTLPVDEGSPLEKLEQKETSGSQPPELCSGVSRQEEGKAAVGLTGNDIATPPNKELPPSPEKKAKPLATTQPAKTSTSKAKIQPTSLPKQPAPTTSGGLNKKPMSLASGSVPAAPHKRPAAATATARPSTLPARDLKPKPITETKVAEKRTSPSKPSSAPALRPGPKTTPTISKATSPSTLVSTGSSSRSPSTTLPKRPTTTKTEGKPADVKRMTAKSATADLSRSKTTSASSVKRNTTPTGATPPAGMASTRVKPMSAPCRSSVALSVDKKPTSTKPSSSAPRVSRLATTVSAPDLKSVRSKVGSTENMKHQPGGGRVQIQNKKVDISKVSSKCGSKANIKHKPGGGDVKIESQKLNFKEKAQAKVGSLDNVGHLPAGGTVKTEGGGSEAPPCPGPPAGEEPAIPEAAPDAGAPTSASGLSGHTTLSGGGDQREPQTLDSQIQETSI
modifications: phosphorylated at T899
B3: Matrin-3: PKGIα substrate, phospho site T150 (protein, UniProt P43244 2-845, looked up)
Matrin-3: SKSFQQSSLGRDSQGHGRDLSAAGIGLLAAATQSLSMPASLGRMNQGTARLASLMNLGMSSSLNQQGAHSALSSASTSSHNLQSIFNIGSRGPLPLSSQHRGDTDQASNILASFGLSARDLDELSRYPEDKITPENLPQILLQLKRRRTEEGPTLSYGRDGRSATREPPYRVPRDDWEEKRHFRRDSFDDRGPSLNPVLDYDHGSRSQESGYYDRMDYEDDRLRDGERCRDDSFFGETSHNYHKFDSEYERMGRGPGPLQERSLFEKKRGAPPSSNIEDFHGLLPKGYPHLCSICDLPVHSNKEWSQHINGASHSRRCQLLLEIYPEWNPDNDTGHTMGDPFMLQQSTNPAPGILGPPPPSFHLGGPAVGPRGNLGAGNGNLQGPRHMQKGRVETSRVVHIMDFQRGKNLRYQLLQLVEPFGVISNHLILNKINEAFIEMATTEDAQAAVDYYTTTPALVFGKPVRVHLSQKYKRIKKPEGKPDEKFDQKQELGRVIHLSNLPHSGYSDSAVLKLAEPYGKIKNYILMRMKSQAFIEMETREDAMAMVDHCLKKALWFQGRCVKVDLSEKYKKLVLRIPNRGIDLLKKDKSRKRSYSPDGKESPSDKKSKTDGAQKTENPAEGKEQEEKSGEDGEKDTKDDQTEQEPSMLLESEDELLVDEEEAAALIESGSSVGDETDLANLGDVSSDGKKEPSDKAVKKDASATSKKKLKKVDKIEELDQENEAALENGIKNEENTEPGAESAENADDPNKDASDNSDGQNDENKEDYTIPDEYRIGPYQPNVPGGIDYVIPKTGFYCKLCSLFYTNEEVAKNTHCSSLPHYQKLKKFLNKLAEERRQKKES
modifications: phosphorylated at T150
B4: Leucine-rich PPR motif-containing protein, mitochondrial: PKGIα substrate, phospho site S656 (protein, UniProt Q5SGE0 78-1392, looked up)
Leucine-rich PPR …: SGSQFDWALMRLDNSVRRTGRITKGLLQKVFESTCRSGSPGSNQALLLLRSCGSLLPELSLAERTEFAHKIWDKLQQLGTVYDVSHYNALLKVYLQNEYRFSPTDFLAKMEGANIQPNRVTYQRLIAAYCSVGDIEGASKILGFMKTRDLPITEAVFSALVTGHARAGDMESAENILTVMKQAGIEPGPDTYLALLNAHAEKGDIDHVKQILEKVEKSDHYFMDRDFLQIIVSFSKAGYPQYVSEILEKITYERRSIPDAMNLILLLVTEKLEDTAFQVLLALPLARDETSSSFGSFFLRHCVTMDTPAEKLIDYCKRLRDAKVHSSSLQFTLHCALQANKTALAKAVMEALRDEGFPIRTHYFWPLLVGHQKTKNVQGIIDILKIMKEMGVDPDQETYINYVFPCFGSVQSARAALQENKCLPKSTTFAQAEVRNEAINGNLQNILSFLESNALPFSFNSLRGSLILGFRRSMNIDLWSKITELLYKDDRYCQKPPGPTEAVGYFLYNLIDSMSDSEVQAKEERLRQYFHQLREMNVKVSENIYKGICNLLDNYHVPELIKDVKVLVDREKIDSRKTSQFTSSDLESTLEKLKAEGHPVGDPLKQLILLLCSEENMQKALEVKAKYESDMVIGGYAALINLCCRHDNAEDALNLKQEFDRLDPSAVLDTAKYVALVKVLGKHGRVQDAINILKEMKEKDVVIKDAAVLSFFHILNGAALRGEIETVKQLHEAIVTLGLAKPSSNISFPLVTVHLEKDDLPAALEASIACHEKYKVLPRIHDVLCKLIEKGETDLIQKAMDFVSQEQGEMSMLYDLFFAFLQTGNYKEAKKIIETPGIRARPTRLQWFCDRCIANNQVETLEKLVELTEKLFECDRDQMYYNLLKLYKISGDWQRADAVWNKMQEENLIPRERTLRLLAGILKTSNQEVPFDVPELWFGDDRSSLSSSSPSAGDTVTEKMLLSDCRLKKSKDAYNIFLKAEKQDVVFSSEAYSTLVGLLLSKDDFTRAMHVKDFAETHIKGFTLNGAASSLLIIAQVRRDYLKVALETLKAALDLEQVPSELAVTRLIQALALQGDVKSIETIQKMVKGLDAIELSRMVFINNIALAQMKNNEIDAAIENIEHMLASENQTVEHQYFGLSYLFRKVIEEQMEPALEKLSIMSERLANQFALYKPVTDLFLQLVDSGKVDEARALLERCGAIAEQTSILSVFCLRTSQKPKKAPVLKTLLELIPELRENDRVYSCSMKSYVADKDVASAKALYEHLTAKNMKLDDLFLKRYASLLKDVGEPVPFTEPPESFGFYIKQLKEARENPS
modifications: phosphorylated at S656

Experiments:
[1] = test system: PKGIα (analogue-sensitive C42S/M438G), cGMP-activated; test: Chemical genetic phosphoproteomic screen, cGMP-activated PKGIα C42S/M438G versus unactivated control; format: biochemical, human PKGIα; substrates in rat heart homogenate; settings: PKGIα C42S/M438G + 100 μM cGMP vs basal; 1 h, 30 °C, pH 7.5, rat heart homogenate; label-free LC–MS/MS; n=4; * P<0.05 Dunnett: all values except phospholamban S16
Source text: (§1) We employed a chemical genetic method[18] to identify direct substrates of cGMP-activated PKGIα and disulfide bond-activated PKGIα in heart tissue. This method involves mutation of the ATP binding-site of the kinase of interest so that it can accept a ‘bulky' N6-alkylated ATP analogue for example, N6^−phenylethyl ATP. An oxygen atom on the γ phosphate is also replaced with a sulfur atom—giving an N6-alkylated ATPγS analogue—so that the mutant kinase catalyses the transfer of a thiophosphate group (–PO3S^3−) to its substrates instead of a phosphate. The thiophosphate group is nucleophilic, providing a basis for substrates of the analogue-sensitive kinase to be purified by a ‘covalent capture' protocol. LC–MS/MS allows identification of the substrate and localization of the phosphorylation site. Thiophosphorylated proteins can also be detected with a thiophosphate ester-specific antibody. Analogue-sensitive mutants of PKGIα and PKGIα C42S (which cannot form the activating intermolecular disulfide bond) were generated by mutating Met438 in the ATP-binding domain to Gly. This mutation was chosen based on a previous study where an analogue-sensitive mutant of the catalytic subunit of PKA—which shares sequence homology with PKGIα—was engineered. Detailed protocols are given below.
(§2) A pCDNA3 expression vector encoding human FLAG-tagged PKGIα (ref. [41]) underwent site-directed mutagenesis to generate constructs for untagged WT, C42S, M438G and C42S/M438G PKGIα. Mutations were introduced using the QuikChange II Site-Directed Mutagenesis Kit (Agilent) according to the manufacturer's instructions. Expression and purification of the PKGIα mutants was performed according to a published method[42] as follows: suspension FreeStyle 293-F cells (ThermoFisher Scientific) were transfected with the appropriate PKGIα construct using the stable cationic polymer polyethyleneimine (PEI) as a transfection reagent. After ∼72 h cells were harvested by centrifugation (400g; room temperature; 15 min), re-suspended in ice cold lysis buffer (25 mM sodium phosphate buffer pH 6.8; 10 mM ethylenediaminetetraacetic acid (EDTA); 100 mM NaCl; 10 mM benzamidine hydrochloride; and 10 mM dithiothreitol (DTT)) and frozen in liquid N2. Cells were lysed by three freeze (liquid N2)-thaw (37 °C) cycles and the lysate was clarified by centrifugation at 140,000g and 4 °C for 30 min. The soluble protein fraction was loaded onto a pre-equilibrated 8-(2-aminoethylamino)adenosine-3′, 5′-cyclic monophosphate column (8-AEA-cAMP agarose; BioLog, Germany) followed by washing with 20 column volumes of lysis buffer. The column was further washed with lysis buffer +3 M NaCl (5 column volumes) and PKGIα was then eluted with lysis buffer +150 mM NaCl and 500 μM cAMP. Removal of cAMP and buffer exchange was achieved by extensive dialysis against 25 mM sodium phosphate buffer pH 6.8, 2 mM EDTA and 100 mM NaCl. For ITC analysis, WT PKGIα was incubated with 10 mM lipoic acid for 2 h on ice to obtain ∼100% disulfide dimer (confirmed by SDS-PAGE). Oxidized WT or C42S PKGIα was further purified by size exclusion chromatography using a HiLoad 16/600 Superdex 200 pg column (GE Healthcare) with 50 mM sodium phosphate buffer pH 7.4 and 100 mM NaCl. Proteins were concentrated using Amicon Ultra centrifugal filter devices (Merck Millipore). DTT was absent in storage buffers so that the activating disulfide bond would not be reduced and so that the PKGIα M438G mutant would be oxidized to disulfide dimer in the presence of air (confirmed by SDS-PAGE). Protein concentration was determined by Pierce BCA assay (ThermoFisher) and enzyme activity was confirmed using the Omnia kinase assay kit (ThermoFisher).
(§3) Male Wistar rats (9–10 weeks; body weight 300–330 g) were euthanized by intraperitoneal injection of sodium pentobarbitone (200 mg kg^−1) with heparin (500 USP units). […]

[2] = test system: PKGIα (analogue-sensitive M438G), disulfide-activated; test: Chemical genetic phosphoproteomic screen, disulfide-activated PKGIα M438G versus unactivated control; format: biochemical, human PKGIα; substrates in rat heart homogenate; settings: disulfide-activated PKGIα M438G vs basal; 1 h, 30 °C, pH 7.5, rat heart homogenate; label-free LC–MS/MS; n=4; * P<0.05 Dunnett: only phospholamban S16
Source text: as §1, §2, §3

Molecule | Log2 fold change in phosphorylation, cGMP versus control [1] | Log2 fold change in phosphorylation, Disulfide versus control [2]
B1 | 1.98* | 0.45
B2 | 3.69* | 1.73
B3 | 3.58* | 1.38
B4 | 4.57* | 0.77
